Measurements published in paper PMC4804166, “Different states of synaptotagmin regulate evoked versus spontaneous release” (Nature Communications, 2016).

Target: T1, preformed t-SNARE heterodimers (syntaxin 1A and SNAP-25B) in PS-free proteoliposomes (rat | mouse, UniProt P32851 1-288; P60879-1 1-206)
T1 construct: syntaxin-1A, rat, full-length cDNA; SNAP-25B, mouse; the sentence 'cDNA encoding full-length rat syntaxin-1A, mouse SNAP-25B and mouse synaptobrevin-2' is read as full length for all three; also called t-SNAREs; t-SNARE vesicles; source: pTrcHis vector, purified by the N-terminal His6-tag; reconstituted into PS-free vesicles
T1 sequence (P32851 whole entry, chain 1 of 2): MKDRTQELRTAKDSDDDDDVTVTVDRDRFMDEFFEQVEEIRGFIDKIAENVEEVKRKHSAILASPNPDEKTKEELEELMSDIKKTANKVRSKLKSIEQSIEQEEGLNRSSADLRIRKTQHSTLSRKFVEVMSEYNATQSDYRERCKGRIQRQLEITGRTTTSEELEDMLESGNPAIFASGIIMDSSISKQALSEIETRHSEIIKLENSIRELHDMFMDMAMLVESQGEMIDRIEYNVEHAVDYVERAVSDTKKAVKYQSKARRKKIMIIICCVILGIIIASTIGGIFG
T1 sequence (P60879 whole entry, chain 2 of 2): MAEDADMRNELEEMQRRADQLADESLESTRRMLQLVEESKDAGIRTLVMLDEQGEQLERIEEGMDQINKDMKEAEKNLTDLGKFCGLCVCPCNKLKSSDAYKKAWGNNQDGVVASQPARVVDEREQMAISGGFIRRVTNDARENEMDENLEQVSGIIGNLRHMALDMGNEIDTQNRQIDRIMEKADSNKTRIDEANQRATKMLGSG
Test: co-flotation; 11 uM syt cytoplasmic domain mixed with 45 ul PS-free t-SNARE vesicles in 25 mM HEPES-KOH pH 7.4, 100 mM KCl, 10% glycerol, 1 mM dithiothreitol; 0.2 mM EGTA or 1 mM free Ca2+; RT 45 min; Accudenz gradient, 287,000g; SDS-PAGE, Coomassie blue, densitometry
Conditions: both partners purified

B1: wild-type cytoplasmic domain of synaptotagmin 1 (residues 96-421) (domain or fragment, rat, UniProt P21707 96-421, looked up)
chain: GGKNAINMKDVKDLGKTMKDQALKDDDAETGLTDGEEKEEPKEEEKLGKLQYSLDYDFQNNQLLVGIIQAAELPALDMGGTSDPYVKVFLLPDKKKKFETKVHRKTLNPVFNEQFTFKVPYSELGGKTLVMAVYDFDRFSKHDIIGEFKVPMNTVDFGHVTEEWRDLQSAEKEEQEKLGDICFSLRYVPTAGKLTVVILEAKNLKKMDVGGLSDPYVKIHLMQNGKRLKKKKTTIKKNTLNPYYNESFSFEVPFEQIQKVQVVVTVLDYDKIGKNDAIGKVFVGYNSTGAELRHWSDMLANPRRPIAQWHTLQVEEEVDAMLAVKK
notes: synaptotagmin 1, rat, cytoplasmic domain with the tandem C2-domains C2A and C2B, residues 96-421; the D374 of the original cDNA was corrected to glycine; The native linker between C2A and C2B is residues 264-272, SAEKEEQEK; Residue 374 is glycine after correction of the cDNA; also called WT syt; syt
B1: binds.
